Assay [1] deals with T1, human recombinant LANCL1 (Homo sapiens, UniProt O43813).
T1 construct: purchased ABCAM ab181923; host or cells: E. coli
Nature of the assay: In-gel fluorescence: photolabelling of recombinant LANCL1 with PAL probes, with or without excess competitor. The class given is binding. As for the experimental part:
The in-gel fluorescence protocol can be briefly described as follows:
1. LANCL1 Labelling, Assay on 96 Well Plate, Volume of the Reaction 40 μl in PBS
3 μg/well of human recombinant LANCL1 (ABCAM catalog no. ab181923, 1 mg/ml; expressed in E. Coli and incorporating an N-terminal 23 amino acid hexaHis tag; UniProtKB/Swiss-Prot Accession no: O43813);
• Vehicle DMSO • ±LAT8881 (a cyclic peptide fragment of human growth hormone; SEQ ID NO:1) • SEQ ID NO:1) as competitor @ 25, 50, 100 or 200 μM, pre-incubation 10 min, 4 μl of a stock solution 10-fold concentrated • ±LAT9991-PAL, LAT7771-PAL or LAT9993-PAL probes @ 1 μM, incubation 30 min at room temperature on a plate agitator (protected from light), 4 μl of a stock solution @10 μM
• Irradiation @ 365 nm 20 min (4° C., on a support containing ice) Transfer 40 μl in a clean Eppendorf tube
• Reduction: DTT 10 mM, 30 min @ 56° C. • Alkylation: Iodoacetamide 30 mM, 45 min @ RT Click-iT AzideTamra of 60 μL samples
• Acetone Precipitation −20° C. ON • Dry pellet resuspended in 30 μL 1% SDS in 50 mM Tris-HCl pH 7.5 • Photolabeled LANCL1 was tagged with tetramethylrhodamine (TAMRA) azide @100 μM TAMRA azide by copper click chemistry using the Click-iT Protein Reaction Buffer Kit (ThermoFisher Scientific) during 30 minutes • Precipitation using the chloroform-methanol method, pellet was air-dried for 10 min at room temperature, resuspended in 30 μL SDS loading buffer (Bio Rad's XT Sample Buffer containing 2.5% v/v 2-mercaptoethanol) and heated (60° C., 30 min)
(§1) • SDS-PAGE (4-15% Criterion™ TGX Stain-Free™ Protein Gel, Bio Rad) • Analyzed by in-gel fluorescence scanning using a ChemiDoc™ MP Imaging System (Bio Rad) with a green LED light as an excitation source and a BP600/20 nm emission filter

For assay [2], the system named is DRG neurons. Nature of the assay: Confocal microscopy of PAL probe binding in DRG cell cultures, spinal nerve ligation model. It counts as cell-based, Sprague Dawley rats. The settings on record: specificity control; excess unlabeled competitor. The text has this:
LAT9991-PAL was used in conjunction with confocal microscopy to visualise the location of potential target(s), noting that analgesic agents can have activity at several sites, either on central or peripheral neurons, or on glial or inflammatory cells that are in proximity to neurons. To identify the cell types to which LAT9991-PAL binds, 3-day cell cultures of DRG from neuropathic or control sites were taken from animals with neuropathy due to spinal nerve ligation. Briefly, L5 and L6 spinal nerves of male Sprague Dawley rats were ligated to create a robust and long-lasting mechanical allodynia of the injured hind paw. Presence of neuropathic pain was confirmed 2 weeks post-spinal nerve ligation surgeries (day 14) using von Frey (VF) filaments (up-and-down method) applied on ipsilateral (injured) and contralateral (non-injured) paw). Live DRG cells were dissected out as described previously and incubated with LAT9991-PAL for 1 hour prior to UV irradiation to fix the binding in situ. […] As a specificity control, the binding of LAT9991-PAL to the neuropathic DRG was blocked in the presence of an excess amount of unlabeled LAT9991 peptide.

Assay [3] has as its target T2, human recombinant LANCL2 (Homo sapiens, UniProt Q9NS86).
T2 construct: human recombinant LANCL2 (amino acid residues 1-450); GST (N); purchased ABCAM ab163277; host or cells: wheat germ
T2 sequence (Q9NS86 1-450): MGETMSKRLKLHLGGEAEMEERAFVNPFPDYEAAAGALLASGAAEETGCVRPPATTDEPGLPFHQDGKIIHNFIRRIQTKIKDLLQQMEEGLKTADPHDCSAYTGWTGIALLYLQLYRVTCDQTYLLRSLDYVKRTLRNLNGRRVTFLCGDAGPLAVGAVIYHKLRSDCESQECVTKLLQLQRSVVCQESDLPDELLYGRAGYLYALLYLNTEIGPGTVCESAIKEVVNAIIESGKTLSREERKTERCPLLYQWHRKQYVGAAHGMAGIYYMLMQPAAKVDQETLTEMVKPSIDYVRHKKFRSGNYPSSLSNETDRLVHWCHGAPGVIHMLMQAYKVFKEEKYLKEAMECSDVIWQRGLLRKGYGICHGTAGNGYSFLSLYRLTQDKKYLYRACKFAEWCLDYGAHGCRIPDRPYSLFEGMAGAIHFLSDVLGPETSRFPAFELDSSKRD
Nature of the assay: In-gel fluorescence: photolabelling of recombinant LANCL2 with PAL probe, with or without excess LAT8881. As to conditions: in-gel fluorescence after UV cross-linking. The class given is binding. As for the experimental part: (§2) An in-gel fluorescence protocol was followed to determine whether the cyclic peptides bound to LANCL2 and LANCL3. Briefly:
(§3) 1. LANCL2 and LANCL3 Labelling, Assay on 96 Well Plate, Volume of the Reaction 40 μl in PBS
• 1 μg/well of human recombinant LANCL2 (amino acid residues 1-450; ABCAM catalog no. ab163277, ˜0.07 mg/ml; expressed in wheat germ and incorporating an N-terminal GST tag; UniProt Accession no: Q9NS86);
• Vehicle DMSO • ±LAT8881 (a cyclic peptide fragment of human growth hormone; SEQ ID NO:1) • SEQ ID NO:1 as competitor @ 50, 100 or 200 μM, pre-incubation 10 min, 4 μl of a stock solution 10-fold concentrated • ±LAT9991-PAL probes @ 1 μM, incubation 30 min at room temperature on a plate agitator (protected from light), 4 μl of a stock solution @10 μM
(§4) • Irradiation @ 365 nm 20 min (4° C., on a support containing ice) • Transfer 40 μl in a clean Eppendorf tube
(§5) • Reduction: DTT 10 mM, 30 min @ 56° C. • Alkylation: Iodoacétamide 30 mM, 45 min @ RT Click-iT AzideTamra of 60 μL samples
(§6) • Acetone Precipitation −20° C. ON • Dry pellet resuspended in 30 μL 1% SDS in 50 mM Tris-HCl pH 7.5 • Photolabeled LANCL1 was tagged with tetramethylrhodamine (TAMRA) azide @100 μM TAMRA azide by copper click chemistry using the Click-iT Protein Reaction Buffer Kit (ThermoFisher Scientific) for 30 minutes • Precipitation using the chloroform-methanol method, pellet was air-dried for 10 min at room temperature, resuspended in 30 μL SDS loading buffer (Bio Rad XT Sample Buffer containing 2.5% v/v 2-mercaptoethanol) and heated (60° C., 30 min)
as §1

Assay [4] has as its system tissue homogenates of nerve from neuropathic animals. The assay is described as follows: PAL cross-linking to nerve tissue homogenates and gel separation. The class given is binding. The text has this:
Using a ligand driven approach, the present inventors utilized the photo-activatable cross-linking PAL from Evotec A.G. (Photo-Activated Labelling) technology that derivatizes the active cyclic peptides to allow UV-induced cross-linking to binding targets (described herein as peptide/SEQ ID NO:X-PAL). This allows subsequent detection in cells, gels of tissue isolates or in pull-down of the peptide/target complex for sequencing by mass spectroscopy (PALMS).
LAT9991-PAL was cross-linked to tissue homogenates of nerve from neuropathic animals.

For assay [5], the target named is LANCL1 (Rattus norvegicus, UniProt Q9QX69). Nature of the assay: Mass spectrometry of excised gel bands from PAL cross-linked homogenates (PALMS). It counts as binding. Also on record: from tissue; host or cells: nerve tissue homogenate of neuropathic animals. The settings on record: vs un-crosslinked samples (CU) and samples with excess LAT8881 (COMP); 37 kDa band. The text has this:
Having identified at least three molecular weight bands as representative of the potential targets, the 12-15 kD, 37 kD and 50 kD regions of the gel were excised, subjected to limited proteolysis and analysed by mass spectrometry to identify peptides from proteins that were differentially enriched. The detection of at least two different peptides from a protein that is enriched in the LAT9991-PAL cross-linked samples when compared to (i) the un-crosslinked samples and (ii) LAT9991-PAL in the presence of excess LAT8881 (SEQ ID NO:1; YLRIVQCRSVEGSCGF) was considered a positive signature. LAT9991-PAL, LAT9993-PAL and LAT7771-PAL were also used. LAT9993 (SEQ ID NO:41) has the amino acid sequence SCRSRPVESSC.

For assay [6], the target named is T3, human recombinant LANCL3 (Homo sapiens, UniProt Q6ZV70).
T3 construct: human recombinant LANCL3 (amino acid residues 1-420); 10xHis (N); Myc (C); purchased ABCAM ab163277; host or cells: E. coli
The assay is described as follows: In-gel fluorescence: photolabelling of recombinant LANCL3 with PAL probe, with or without excess LAT8881. The class given is binding. The settings on record: in-gel fluorescence after UV cross-linking. As for the experimental part: as §2, §3
• […] of human recombinant LANCL3 (amino acid residues 1-420; ABCAM catalog no. ab163277, ˜0.07 mg/ml; expressed in E. Coli and incorporating an N-terminal 10×His tag and a C-terminal Mvc tag; UniProt Accession no: Q6ZV70);
• Vehicle DMSO • ±LAT8881 (a cyclic peptide fragment of human growth hormone; SEQ ID NO:1) • SEQ ID NO:1 as competitor @ 50, 100 or 200 μM, pre-incubation 10 min, […], incubation 30 min at room temperature on a plate agitator (protected from light), 4 μl of a stock solution @10 μM
as §4, §5, §6, §1

“Also recorded” adds a separate entry of the source. Bridges are numbered along the chain shown (N, C = ends). Where no end group is shown, it is not given here.

Chain of LANCL1 (Q9QX69 whole entry): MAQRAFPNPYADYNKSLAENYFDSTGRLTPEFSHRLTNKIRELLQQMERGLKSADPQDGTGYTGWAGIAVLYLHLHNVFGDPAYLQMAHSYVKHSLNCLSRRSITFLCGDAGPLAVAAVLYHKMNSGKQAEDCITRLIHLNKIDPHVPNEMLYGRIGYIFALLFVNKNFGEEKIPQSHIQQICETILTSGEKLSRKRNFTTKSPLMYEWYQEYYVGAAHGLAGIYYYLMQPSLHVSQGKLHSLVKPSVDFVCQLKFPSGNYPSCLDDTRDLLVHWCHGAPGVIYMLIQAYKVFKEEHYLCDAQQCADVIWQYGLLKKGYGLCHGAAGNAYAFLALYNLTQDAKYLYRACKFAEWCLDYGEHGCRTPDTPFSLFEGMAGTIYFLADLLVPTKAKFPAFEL
T1 sequence (O43813 with tags, fused parts or gaps): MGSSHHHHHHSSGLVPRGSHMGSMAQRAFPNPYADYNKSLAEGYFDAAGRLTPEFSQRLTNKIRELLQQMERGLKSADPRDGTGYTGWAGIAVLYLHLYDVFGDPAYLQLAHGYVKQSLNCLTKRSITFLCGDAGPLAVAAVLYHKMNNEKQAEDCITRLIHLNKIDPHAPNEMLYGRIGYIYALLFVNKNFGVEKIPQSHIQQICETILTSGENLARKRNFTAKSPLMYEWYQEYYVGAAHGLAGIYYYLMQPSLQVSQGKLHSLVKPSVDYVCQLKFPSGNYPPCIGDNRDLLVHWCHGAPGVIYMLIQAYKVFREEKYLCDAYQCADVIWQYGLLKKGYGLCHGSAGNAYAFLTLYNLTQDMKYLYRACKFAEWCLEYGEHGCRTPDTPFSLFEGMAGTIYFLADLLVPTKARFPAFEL
T3 sequence (Q6ZV70 whole entry, the tested form may be a part): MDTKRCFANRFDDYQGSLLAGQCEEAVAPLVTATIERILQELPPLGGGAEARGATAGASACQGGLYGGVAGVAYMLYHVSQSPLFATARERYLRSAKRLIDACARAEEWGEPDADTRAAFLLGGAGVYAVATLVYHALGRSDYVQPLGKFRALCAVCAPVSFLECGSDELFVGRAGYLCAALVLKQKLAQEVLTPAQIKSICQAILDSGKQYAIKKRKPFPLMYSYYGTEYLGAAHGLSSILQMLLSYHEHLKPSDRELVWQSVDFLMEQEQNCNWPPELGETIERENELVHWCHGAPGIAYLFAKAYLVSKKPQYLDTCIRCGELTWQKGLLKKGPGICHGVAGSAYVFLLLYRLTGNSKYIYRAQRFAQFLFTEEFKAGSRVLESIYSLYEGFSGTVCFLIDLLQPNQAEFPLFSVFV

Consider “CRSVEGSCG (disulfide 1-8 (inferred)) [LAT9991]”, for which the “Inhibition of LAT9991-PAL binding to recombinant LANCL1 by excess competitor” value in assay [1] (probe LAT9991-PAL, excess unlabelled competitor) is “inhibited”. Besides, the “Block of LAT9991-PAL binding to neuropathic DRG by excess unlabeled peptide” value in assay [2] is “blocked”.

As to “LAT7771-PAL: cyclic peptide conjugate of LAT7771 (SEQ ID NO:52) with the PAL photo-activatable cross-linking group (CRIIHNNNC; disulfide 1-9 (inferred); also: ['PAL photo-activatable cross-linking group, structure and site not given here'])”, the “Binding of PAL probe to recombinant LANCL1” value in assay [1] (in-gel fluorescence after UV (365 nm) cross-linking) was “bound to recombinant LANCL1”. Besides, the “Binding of PAL probe to recombinant LANCL2” value in assay [3] is listed as “bound to recombinant LANCL2”. In addition, in assay [4], the “Cross-linking of PAL probe to tissue homogenates of nerve from neuropathic animals” value was “shown to cross-link”. Also, in assay [4] (PAL probe cross-linked to nerve homogenates), the “Molecular weight ranges of targets stained after gel separation” value is “˜12-15 kD, ˜37 kD and ˜50 kD”. In addition, in assay [5], the “LANCL1 bound / enriched in PAL probe cross-linked samples (mass spectrometry)” value is “enriched by several fold-changes; also recorded: bound to LANCL1”.

For “LAT9993-PAL: cyclic peptide conjugate of LAT9993 (SEQ ID NO:41) with the PAL photo-activatable cross-linking group (SCRSRPVESSC; disulfide 2-11 (inferred); also: ['PAL photo-activatable cross-linking group, structure and site not given here'])”, the “Binding of PAL probe to recombinant LANCL3” value in assay [6] is on record as “bound to recombinant LANCL3”. For the same substance, in assay [4], the “Cross-linking of PAL probe to tissue homogenates of nerve from neuropathic animals” value is on record as “shown to cross-link”. In assay [5], the “LANCL1 bound / enriched in PAL probe cross-linked samples (mass spectrometry)” value is reported as “enriched by several fold-changes; also recorded: bound to LANCL1”.

Values taken from US20230064978A1, “CYCLIC PEPTIDE RECEPTOR LANTHIONINE SYNTHETASE C-LIKE PROTEIN (LANCL) AND USES THEREOF” (LATERAL IP PTY LTD, priority 2019, published 2023).
